According to article PMC8224933, “Plasticity of seven-transmembrane-helix receptor heteromers in human vascular smooth muscle cells” (PLoS ONE, 2021):

T1: α1D-adrenoceptor (human (endogenous in hVSMCs), UniProt P25100 1-572)
T1 construct: α1D-adrenoceptor, endogenous in human vascular smooth muscle cells; also called α1D-AR; source: endogenous, hVSMCs (primary aortic smooth muscle cells, ATCC PCS-100-012), fixed cells
T1 sequence (looked up): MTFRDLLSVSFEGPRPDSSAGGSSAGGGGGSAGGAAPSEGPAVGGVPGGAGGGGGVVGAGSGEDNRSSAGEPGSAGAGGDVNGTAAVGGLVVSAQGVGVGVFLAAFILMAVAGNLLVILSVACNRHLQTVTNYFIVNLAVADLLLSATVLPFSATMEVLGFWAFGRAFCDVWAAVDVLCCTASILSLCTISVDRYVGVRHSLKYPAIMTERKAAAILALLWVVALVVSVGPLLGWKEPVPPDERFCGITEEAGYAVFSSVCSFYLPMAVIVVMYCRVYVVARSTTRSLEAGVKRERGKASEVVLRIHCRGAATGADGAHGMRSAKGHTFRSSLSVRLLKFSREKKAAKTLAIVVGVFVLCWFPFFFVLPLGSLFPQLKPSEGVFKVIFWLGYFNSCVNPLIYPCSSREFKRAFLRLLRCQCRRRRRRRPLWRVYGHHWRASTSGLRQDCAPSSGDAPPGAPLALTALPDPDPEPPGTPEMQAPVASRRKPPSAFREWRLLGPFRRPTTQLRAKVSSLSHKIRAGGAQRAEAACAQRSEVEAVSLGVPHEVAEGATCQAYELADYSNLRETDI

B1: α1A-adrenoceptor (receptor, human (endogenous in hVSMCs), UniProt P35348 1-466, looked up)
chain: MVFLSGNASDSSNCTQPPAPVNISKAILLGVILGGLILFGVLGNILVILSVACHRHLHSVTHYYIVNLAVADLLLTSTVLPFSAIFEVLGYWAFGRVFCNIWAAVDVLCCTASIMGLCIISIDRYIGVSYPLRYPTIVTQRRGLMALLCVWALSLVISIGPLFGWRQPAPEDETICQINEEPGYVLFSALGSFYLPLAIILVMYCRVYVVAKRESRGLKSGLKTDKSDSEQVTLRIHRKNAPAGGSGMASAKTKTHFSVRLLKFSREKKAAKTLGIVVGCFVLCWLPFFLVMPIGSFFPDFKPSETVFKIVFWLGYLNSCINPIIYPCSSQEFKKAFQNVLRIQCLCRKQSSKHALGYTLHPPSQAVEGQHKDMVRIPVGSRETFYRISKTDGVCEWKFFSSMPRGSARITVSKDQSSCTTARVRSKSFLQVCCCVGPSTPSLDKNHQVPTIKVHTISLSENGEEV
notes: α1A-adrenoceptor, endogenous in human vascular smooth muscle cells; also called α1A-AR; source: endogenous, hVSMCs (primary aortic smooth muscle cells, ATCC PCS-100-012), fixed cells
B2: α1B-adrenoceptor (receptor, human (endogenous in hVSMCs), UniProt P35368 1-520, looked up)
chain: MNPDLDTGHNTSAPAHWGELKNANFTGPNQTSSNSTLPQLDITRAISVGLVLGAFILFAIVGNILVILSVACNRHLRTPTNYFIVNLAMADLLLSFTVLPFSAALEVLGYWVLGRIFCDIWAAVDVLCCTASILSLCAISIDRYIGVRYSLQYPTLVTRRKAILALLSVWVLSTVISIGPLLGWKEPAPNDDKECGVTEEPFYALFSSLGSFYIPLAVILVMYCRVYIVAKRTTKNLEAGVMKEMSNSKELTLRIHSKNFHEDTLSSTKAKGHNPRSSIAVKLFKFSREKKAAKTLGIVVGMFILCWLPFFIALPLGSLFSTLKPPDAVFKVVFWLGYFNSCLNPIIYPCSSKEFKRAFVRILGCQCRGRGRRRRRRRRRLGGCAYTYRPWTRGGSLERSQSRKDSLDDSGSCLSGSQRTLPSASPSPGYLGRGAPPPVELCAFPEWKAPGALLSLPAPEPPGRRGRHDSGPLFTFKLLTEPESPGTDGGASNGGCEAAADVANGQPGFKSNMPLAPGQF
notes: α1B-adrenoceptor, endogenous in human vascular smooth muscle cells; also called α1B-AR; source: endogenous, hVSMCs (primary aortic smooth muscle cells, ATCC PCS-100-012), fixed cells

Legend:
Test in all cases: proximity ligation; Duolink II PLA on hVSMCs fixed with 4% paraformaldehyde; two primary antibodies from differing species (1:500, 37°C, 105 min); control: omission of one primary antibody; PLA signals per cell counted; cells untreated or incubated 72 h with non-targeting, CXCR4, ACKR3 or AVPR1A siRNA
Settings in all cases: partners not purified
[1] = target: B2
[2] = target: B1
[3] = target: T1, α1D-adrenoceptor

PLA signals after AVPR1A siRNA, % of NT siRNA [1]	PLA signals after AVPR1A siRNA, % of NT siRNA [2]	PLA signals after AVPR1A siRNA, % of NT siRNA [3]	Binder
72%	91%	–	chemokine (C-X-C motif) receptor 4 (receptor, human (endogenous in hVSMCs), UniProt P61073 1-352, looked up, chemokine (C-X-C motif) receptor 4 (CXCR4), endogenous in human vascular smooth muscle cells; also called CXCR4; source: endogenous, hVSMCs (primary aortic smooth muscle cells, ATCC PCS-100-012), fixed cells) MEGISIYTSDNYTEEMGSGDYDSMKEPCFREENANFNKIFLPTIYSIIFLTGIVGNGLVILVMGYQKKLRSMTDKYRLHLSVADLLFVITLPFWAVDAVANWYFGNFLCKAVHVIYTVNLYSSVLILAFISLDRYLAIVHATNSQRPRKLLAEKVVYVGVWIPALLLTIPDFIFANVSEADDRYICDRFYPNDLWVVVFQFQHIMVGLILPGIVILSCYCIIISKLSHSKGHQKRKALKTTVILILAFFACWLPYYIGISIDSFILLEIIKQGCEFENTVHKWISITEALAFFHCCLNPILYAFLGAKFKTSAQHALTSVSRGSSLKILSKGKRGGHSSVSTESESSSFHSS
101%	–	–	B1
–	–	141%	B2
